The nature of the series: soluble on expression in E. coli; label from the status in PepcDB or PDB records.
With “MGSDKIHHHHHHMADFSNQIITIKKGLDLPIAGEPRQIIESGNKPSQVAILGEEYVGLKPTMLVEVGDKVKKGQPLFEDKKTKGVLFTAPASGEIVAINRGDRRVLQSVVIGCDGLDVNEQIRFDILPDVISLSRQVVQDQLVSSGLWTALRTRPFSRVPALDSQPAGIFVTAIDTNPLAADPRLIIAEQLEAFKTGLQVLTRLTEGKVYLCQDKGDAIACDVSPNLEIRRFTGVHPAGLAGTHIHFTLPVSLERQVWHIGYQDVIAYGKLFQTGELYTDRIIALGGPSVLNPRLLRTQLGAELSVLVADEIKPGNNRVVSGSVLSGHTAAGVHDFLGRFHNQVSVLAEDAQHQVLPWVRGGSDKFSITRAVTSRLFGASKRFEFTTHQGGSQRAMMAFGQLDRVMPLDILPTLLVRDLVVRDTDEAQALGALELDEEDLALCTFVCPGKYDFGKELRACLDVIEREG”, the “soluble on expression in E. coli” value is “not soluble”. The value for “AGGEDRGDGEPVSVVTVRVQYLEDTDPFACANFPEPRRAPTCSLDGALPLGAQIPAVHRLLGAPLKLEDCALQVSPSGYYLDTELSLEEQREMLEGFYEEISKGRKPTLILRTQLSVRVNAILEKLYSSSGPELRRSLFSLKQIFQEDKDLVPEFVHSEGLSCLIRVGAAADHNYQSYILRALGQLMLFVDGMLGVVAHSDTIQWLYTLCASLSR” was “not soluble”. For the sequence “MGSDKIHHHHHHMVTNVRIGAMQAYMVAEPWNTRAITGNENIGFTFAQGKEVWLGHPDRLLGVMESFIDKYPKTYRSLVKAMIEACQYCSKAENRQEVAELLTERSFTGARPKKKGAPIAKFTSPGILGNYNYGGFDGKDRTIKAADTTIFFDIPDNLPKQPGEHSTFLWRSRSIWLMTQAARWGQIKEFPKNADKLAQQGWRTDLYREIASEMGIQCPKDDYKVEPPEVFIDKKGFDPSDPVGYLNSFAIRANAPTNFFMS”, the “soluble on expression in E. coli” value is on record as “not soluble”. Turning to “MLNLRGVEIRKGALDGPAQARLIEALRPVLKAAPLFTPTMPNGKPLSVRMTSAGSLGWVTDKGGYRYQPTHPKGMAWPAIPPEVLDLWHGVTGQDRAPDCCLINYYGEGARMGLHQDRDEADLTWPVVSLSLGDDALFRIGNTSRGGKTESVWLNSGDVVVMGGPARLIYHGIDRIRFGSSRLLPKGGRLNLTLRVAGLEHHHHHH”, the “soluble on expression in E. coli” value was “not soluble”. The value for “MGSDKIHHHHHHMRIDTVNVLLEALPYIKEFYGKTFVIKFGGSAMKQENAKKAFIQDIILLKYTGIKPIIVHGGGPAISQMMKDLGIEPVFKNGHRVTDEKTMEIVEMVLVGKINKEIVMNLNLHGGRAVGICGKDSKLIVAEKETKHGDIGYVGKVKKVNPEILHALIENDYIPVIAPVGIGEDGHSYNINADTAAAEIAKSLMAEKLILLTDVDGVLKDGKLISTLTPDEAEELIRDGTVTGGMIPKVECAVSAVRGGVGAVHIINGGLEHAILLEIFSRKGIGTMIKELEG” was “not soluble”; that for “MSLNTKLLILDDDIDILQMLKTVFIGEEMDIILESESEQALRFITTERPNVAIVDINLPRKSGLQVLQEAKKIDPGLSVIMTTGNKTTQNAIEAMKYGAYDYVTKPFDMNKLKSAVHKALECNLLSRKVRYTKDTKQLSEDEGHHHHHH” was “not soluble”. The value for “MVHLAKYIVVTGGVVSSIGKGITAASIGRILRSYGLSVTAIKIDPYLNWDSGTLNPYQHGEVFVTDDGMETDLDLGHYERFLDSDLPGEANITTGKVYMSVINKERSGDYLGSCVQIIPHITDEIKSMIRKIADKSGAEVVLVEVGGTVGDIEGQPFLEALRQLRNEEGHENVMFVHVTYVPYLRAAGEFKTKPTQHSTKELRSTGINPDMIICRSEMPIDSSLKRKIAHFCDVEEEAVVNAPDASSIYEVPLVLDSERVGDYIVRRIELDVDGEADLSEWAGIVESLMIDEPVVTVGIVGKYVELEDSYISIREALKHAAAHLRVRVDIEWISADDAVNEEDLSRLDSILIPGGFGERGIAGKLEAVRFALENRVPIFGICLGMQCMVIEFARLNGMEGANSTEFDPETPYPVIDMMEEQKRIKNMGGTMRLGSYQCRIREGTLAHEAYGTELVGERHRHRFELNNEFREELESKGLIISGTSPDDFLVEMVEIKDHPWFLGCQFHPEFRSRPNRAHPLFVSFLRAALERSR” was “soluble”; that for “MGNQYVKPERTGNSPYTRSGVPPPALVKTGDKPLHRVNDRMSLELHMADERVRAAGLSPAEREWRKKWVHDQHLHADEPVVVDAVHRQLNPIRTAYRLPWDKFYLHYLKPTFGVYYGTAIRVTAPKLLMAFVVVQTAYYYWKYEVKDWTHLRGLESMPQKEVIASAPAIEEKFPGLMDKGLANPSKDDYYTPTFNKRTAYLDVGETKRPW” was “not soluble”. The value for “MSAQRIQKVDILRYDPANDAEPHMQRFEVPFDETMSVLDAIGYVKDHLDKDLSYRWSCRMAICGSCGIMVNGVPKLACKSFLRDYPEGVKIEPLANFPIEKDLIVDMTPFIERLEAIKPYIIGNDRKPEDGTNLQTPEQMARYKQFAGCINCGLCYAACPQFGLNPEFLGPAALTLAHRYNLDSRDNGKAERMKLINGDNGAWGCTFVGYCSEVCPKHVDPAAAVNQGKVESSLDFVIAMLNPDGSPKKVEA” was “not soluble”; that for “MGSDKIHHHHHHMLFNQLQNETNLTNSEKEIARYLLNQNLDLATLSAQKLGELTFTSKPTVLRFIKKLGYKKFNEFCYDLISEQERIKKSRDLLKHININKDSNLSDLLIKVPNLYNQAINRTNSLMDQENLNLIVKKLNTLDYIDFYGSGITEGLAQIGSFKFSSIGKFGGVYSNVNEHYLTSIHGINKHGAIIISFTGGNKAMINAAKDLKKLNIYSLGIGGLENEELKNNCSSYLTIPFENLSLGMESIVPSVAINYVIDILFTSLTIKNLSQNVTNALKVKNLRK” was “not soluble”. Take “MGSDKIHHHHHHMRSKGVMIPRIMSTQHPDNYSIPFFASSPILGGEDEITEAFYAFSVLGADEQMWDFEGKEVDEFVVKKLLERYPTFFKENILGEDLRLTPRVPNPSVEKAEAKLLLETLQGITRAADYARVFYLDNIAPIFEVILPMTTSLAEMLRVHELYRKIVSLSGEVIYDVTVKEWIGEFYPKEINVIPLFETKVALLKSGRIIREYIGRKRPEYLRVFFARSDPAMNYGLLSAVTYVKKALEQVGEVEEETSTPIYPIIGVGSPPFRGGMRPENVKKVLKEYPSVQTYTIQSSFKYDHPTKDVVKAVEIVKSKKREAPDPLDIPEFIQLYEIEYQKQLKILAPYIRNIVTRIPDRRKRKLHIGLFGYSRNVGGLSLPRVIKFTASLYSIGLPPELLGLNELSDNQLDSISEYYKNLYDDLEFAMRFFSFKVAERVGLRELSEKVKEFKPDIDDEYVREAELVFRGQGDVMKLAQIRGFLG”: the “soluble on expression in E. coli” value is given as “not soluble”. The value for “MWELAEVQEPEAWNRLVSGFAITSPLQSWGWGEVKRTTGWEPRRFLLLGGEGPVAAAQVLLKAAPGGLRLAYAPRGPALHRLEDLPEVARALGRALRATHLVLEPEAGLPAHLPAPRFPGLLLEEPIQPAHSLWLDLTQGEEALLKGMKEMHRRNARLALKRVALSVEGEEAFAEFYRLFTETNRRARLLQHDEAYYRAVLKEMNQPLGEAFLALARKDGEALAAGLFVAFAGKVAYLYGGSTRKHPEAKAPMGMHLAAIRHGMARGYRVYDLWGIPKNPRGSHAEGIHRFKEGFGGQRVQFPAYVLPLSPLYRPLGLLLRLRKTWVNLRVRGNPRDVLG” was “soluble”. On to “IKATYETFSSPNGHGEGRGYLVMPQKKTIKSPTVLVIHENRGLNPYIKDVARRLAKDGFIAFAPDALYPLGGYPGNDDEGRAMQKEMDRAKIEQDFIAAAKFIKQHEHGNGK”, for which the “soluble on expression in E. coli” value was “not soluble”. The value for “MMRNEHVAKGITGVSWYDFKQKLKYKAECGNMEFIEIGRFDPSFEIWSRCGWIDYNLKLSDRIFRCENCGLVIDRDLNTAINISNMELKKVGKGIPEFTPVDIATAADPTIRTGTASSRSMNREPPKPKRLEHHHHHH” was “not soluble”; that for “MGVDKKQKQRKTNPFELKFNKSKHDILGRKKGAQVGAPTASRKRAHEQREQTLGVEYDRKNKISKIVDKRLGEKDGKSEEEKGAMRFTEERVKNYKRASKFNLTDDGDEEEEVLTHKGKALSDIEKYDKSMISDSDDDEEPGNLGSNMVKVAHFGGGEKTAEEHVREKISREDMISNLIAKTKLARHEKQQQKDELELMTESLDSKYQALMGKMKASFRPTGRQPLEKDDYDKLTITLKTEADARATPADRKLSEEEEALKEKERLETLEAAPDADVDIDAGSKADARKVQAKNSRFEVKFDDEGGLIDEDTVEKSRILKKNLDGSDESDDDEDLEDEEEDLDDLLEDEDELEEDSDDEEAQEAQKVVKKAKKSAPEPAETLPFVFEMPKNYKKFCALLEKHSESMDLVLERLVKCHHPSLKEGNKKRLNKLFLLCLRWFDDMSKEELTAESVKEMNLAQETMHALMKFDIQYGVRCVRALIRQHWKGRQDKQKSSPVSFGLISAIRLVSGLFPVADSWHPVVVPALFLATEALCSAKCANLNALAKQIQLANAIVEYVSESKRYVPELVAFARSALLLAVTEKSEKFATNGFPISKPHTEMLCFEEKYTGPALQPISLTTIFNNSPSDPSLKLHVLRALLSLIQHLRVIYSNQNETYSIVFKPFLRILESIQAKNLPAEVQEELETLCASMKAEIGAKCRLVHLSLVKTEKSMLKMLEPRFEWDFDPERPHHGPKDEKKKLTKNLRNERRGAIKELRKDTAFLARKQLSSVKTKDRARIAATKRVMGGLMQQQGEWNKEKRTADVEKKKDKK” was “soluble”; that for “MDTQQIDVMVADASHEVYVDTILETIRNAAKVRGTGIAERTHEYVATKMKEGKAIIALCGDVFAGFTYIESWGNKQYVATSGLIVHPDFRGLGLAKRIKQASFQLARLRWPRAKIFSLTSGAAVMKMNTELGYVPVT” was “soluble”. The value for “MLTVHHLNQSRSQRILWALEELALPYQIVRYQREKTMLAPPALKKVHPLGKSPVIEDHGMVIAESGAILEYLQDTYDSIGRFKPADAQGKQHYRFWLHYAEGSLMPLLLMRLLFTSLGKPPVPLGLRTLGGVIGKGAQKAYLNPQLETHARFIDGHLANHPWFAGEQLSMADIQMSFPLFALLARGGIAHLDHINAWKARVEMRPAWQRAIQQGGPFTIPGG” was “not soluble”; that for “MAKSPVEVNLIPIEATPENFAEYGQVIEASRDGAGFGPHDAQLDLSRGTPRLYILRLKETPLGFFKITHHAKVTQCLGSIGGDVWYMGVAKPSLIEDDDDDGRSVDTVKSKSGHLYIPPEVEEIRVFRFSGPKFVKLHRGTWHAGPLFSGSSFMDFYNLELSNTNVSEEWF” was “soluble”. The value for “GPLGSLVNVIRRESGNPDLLELLMDLNCYTLEVTEGYLKKVNVTEVNGDNVLGPIHVITTVVSSLVRNGLLIQSSKFISKVLLTVESIVMSLPKDETMLGGIFWLSNLSRLPAFAANQKTLYEANGGDEKDKLTLIYLNDLENETLKVFDKIYSTWLVKFMKHASAHIEIFDMVLNEKLFKNSGDEKFAKLFTFLNEFDAVLCKFQVVDSMHTKIFNDTLKYLNVMLFNDLITKCPALNWKYGYEVDRNIERLVSWFEPRIEDVRPNLIQIIQAVKILQLKISNLNEFKLLFDFWYALNPAQIQAILLKYKPANKGEAGVPNEILNYLANVIKRENLSLPGKMEIMLSAQFDSAKNHLRYDTSAITQNSNTEGLATVSKIIKLDRK” was “soluble”; that for “MKKVGKSTFKFENCPIISDCFTIVGKKEGEGPLGLFFDMVVEDEYAGQKSWELAEGKLLNIAISKLIQKSGFTPDEVDLILSGDLLNQLTSSHFAARDLNIPFIGLYGACSTFALSVGLACVFVDGGFAKNIIAATSSHFCSAEKQFRYPLELGCQRPPTAQWTVTGAASFLIKPEDGTQKPKITHFTVGKILDYGIKDSNNMGACMAPAAFDTITTHLEDTKRDFTYYDIIVTGDLGYVGRKLLEELFKKEGKTLSFELLDCGILMFDQKTQDTGAGASGCAASACIFGGYFYKLMLQKTFKRILIVPTGALLSSSTVQLGESIPVIAHALSIEIELEHHHHHH” was “not soluble”.

Values taken from the DeepSol protein solubility set.
